Reference: the Immune Epitope Database (IEDB)

How the values were obtained:
HLA-A*26:01 [1] = assay: IEDB peptide-MHC binding, purified MHC/competitive/fluorescence; filed as Kd, often an IC50 or EC50 that approximates it; ≥ and ≤ were set here for values at or beyond the usual limits of such assays
HLA-A*02:19 = assay: as above
HLA-A*29:02 [2] = assay: as above; settings: source organism: Entamoeba histolytica HM-1:IMSS
HLA-B*27:03 = assay: as above
HLA-B*39:01 = assay: as above
HLA-B*51:01 = assay: as above
HLA-A*02:12 = assay: as above
HLA-B*46:01 = assay: as above
HLA-A*02:03 = assay: as above
HLA-B*15:01 [3] = assay: as above
HLA-B*57:01 [4] = assay: as above
HLA-B*18:01 [5] = assay: as above
HLA-A*02:01 [6] = assay: as above
HLA-A*03:01 [7] = assay: as above
HLA-A*26:01 [8] = assay: IEDB peptide-MHC binding, purified MHC/direct/fluorescence; filed as Kd, often an IC50 or EC50 that approximates it; ≥ and ≤ were set here for values at or beyond the usual limits of such assays; settings: source organism: Campylobacter jejuni
HLA-B*08:01 = assay: as above; settings: source organism: Campylobacter jejuni
HLA-A*11:01 = assay: as above; settings: source organism: Campylobacter jejuni
HLA-A*69:01 [9] = assay: as above
HLA-A*31:01 = assay: as above; settings: source organism: Campylobacter jejuni
HLA-B*40:01 = assay: as above
HLA-B*27:05 = assay: as above; settings: source organism: Campylobacter jejuni
HLA-B*15:01 [10] = assay: as above
HLA-A*01:01 = assay: as above
HLA-A*30:01 = assay: as above
HLA-B*07:02 = assay: as above
HLA-A*24:03 = assay: as above; settings: source organism: Campylobacter jejuni
HLA-B*44:02 = assay: as above
HLA-B*58:01 = assay: as above
HLA-A*02:01 [11] = assay: as above
HLA-A*03:01 [12] = assay: as above; settings: source organism: Campylobacter jejuni
HLA-A*69:01 [13] = assay: IEDB peptide-MHC binding, purified MHC/competitive/fluorescence; filed as Kd, often an IC50 or EC50 that approximates it; ≥ and ≤ were set here for values at or beyond the usual limits of such assays; settings: source organism: Vibrio vulnificus YJ016
HLA-B*15:17 = assay: as above; settings: source organism: Vibrio vulnificus YJ016
HLA-A*02:16 = assay: as above; settings: source organism: Vibrio vulnificus YJ016
HLA-A*02:11 = assay: as above; settings: source organism: Vibrio vulnificus YJ016
HLA-A*68:02 = assay: as above; settings: source organism: Vibrio vulnificus YJ016
HLA-A*29:02 [14] = assay: IEDB peptide-MHC binding, purified MHC/direct/fluorescence; filed as Kd, often an IC50 or EC50 that approximates it; ≥ and ≤ were set here for values at or beyond the usual limits of such assays; settings: source organism: Entamoeba histolytica HM-1:IMSS
HLA-B*57:01 [15] = assay: as above; settings: source organism: Entamoeba histolytica HM-1:IMSS
HLA-B*18:01 [16] = assay: as above; settings: source organism: Entamoeba histolytica HM-1:IMSS
[17] = source organism: Entamoeba histolytica HM-1:IMSS
[18] = source organism: Campylobacter jejuni
[19] = source organism: Vibrio vulnificus YJ016

Measured: Kd

KTRMEDYYL
0.151 µM: HLA-B*57:01 [4]; [17]
≥ 20 µM: HLA-A*26:01 [1]; [17] | HLA-A*02:19; [17] | HLA-A*29:02 [2] | HLA-B*27:03; [17] | HLA-B*39:01; [17] | HLA-B*51:01; [17] | HLA-A*02:12; [17] | HLA-B*46:01; [17] | HLA-A*02:03; [17] | HLA-B*15:01 [3]; [17] | HLA-B*18:01 [5]; [17] | HLA-A*02:01 [6]; [17] | HLA-A*03:01 [7]; [17]

SFGAGTLAK
≥ 20 µM: HLA-A*26:01 [8] | HLA-B*08:01 | HLA-A*69:01 [9]; [18] | HLA-B*40:01; [18] | HLA-B*27:05 | HLA-B*15:01 [10]; [18] | HLA-A*01:01; [18] | HLA-B*07:02; [18] | HLA-A*24:03 | HLA-B*44:02; [18] | HLA-B*58:01; [18] | HLA-A*02:01 [11]; [18]
3.9 µM: HLA-A*31:01
0.0186 µM: HLA-A*30:01; [18]
0.383 µM: HLA-A*11:01
1.97 µM: HLA-A*03:01 [12]

DFISMYFPW
≥ 20 µM: HLA-A*26:01 [1]; [19] | HLA-A*02:19; [19] | HLA-A*69:01 [13] | HLA-B*27:03; [19] | HLA-B*39:01; [19] | HLA-B*51:01; [19] | HLA-A*02:12; [19] | HLA-B*46:01; [19] | HLA-A*02:03; [19] | HLA-B*15:01 [3]; [19] | HLA-B*57:01 [4]; [19] | HLA-B*15:17 | HLA-A*02:16 | HLA-A*02:11 | HLA-A*68:02 | HLA-A*02:01 [6]; [19] | HLA-A*03:01 [7]; [19]
0.946 µM: HLA-B*18:01 [5]; [19]

ETMKPAAMV
0.0015 µM: HLA-A*69:01 [9]; [17]
≥ 20 µM: HLA-A*29:02 [14] | HLA-B*40:01; [17] | HLA-B*15:01 [10]; [17] | HLA-A*01:01; [17] | HLA-A*30:01; [17] | HLA-B*07:02; [17] | HLA-B*57:01 [15] | HLA-B*18:01 [16] | HLA-B*44:02; [17] | HLA-B*58:01; [17] | HLA-A*02:01 [11]; [17]
